In patent publication US20250382369A1 (UCL BUSINESS, published 2025):

T1: human 4Ig-B7-H3 expressed on transduced cells (human, UniProt Q5ZPR3 29-534)
T1 construct: also called isoform 1; Jurkat-B7H3
T1 sequence: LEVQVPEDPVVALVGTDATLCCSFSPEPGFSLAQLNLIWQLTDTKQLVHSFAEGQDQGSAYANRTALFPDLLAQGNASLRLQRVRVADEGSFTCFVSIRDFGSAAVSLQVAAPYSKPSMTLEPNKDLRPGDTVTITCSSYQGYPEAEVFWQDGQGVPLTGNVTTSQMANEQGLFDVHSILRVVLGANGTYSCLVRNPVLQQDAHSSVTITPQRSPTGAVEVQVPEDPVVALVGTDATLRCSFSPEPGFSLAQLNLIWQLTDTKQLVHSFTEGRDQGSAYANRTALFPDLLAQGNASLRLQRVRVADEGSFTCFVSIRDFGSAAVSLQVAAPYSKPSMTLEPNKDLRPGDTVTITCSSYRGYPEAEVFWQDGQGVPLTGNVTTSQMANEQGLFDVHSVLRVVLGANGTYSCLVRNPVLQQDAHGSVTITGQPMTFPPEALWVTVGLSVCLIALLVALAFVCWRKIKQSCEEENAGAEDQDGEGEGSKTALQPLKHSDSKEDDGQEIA

T2: human B7H3 expressed on cell surface (human, UniProt Q5ZPR3 29-534)
T2 construct: whole, on cells; also called B7-H3 on LAN-1, Kelly, IMR-32 and other B7-H3 positive target cell lines
T2 sequence (looked up): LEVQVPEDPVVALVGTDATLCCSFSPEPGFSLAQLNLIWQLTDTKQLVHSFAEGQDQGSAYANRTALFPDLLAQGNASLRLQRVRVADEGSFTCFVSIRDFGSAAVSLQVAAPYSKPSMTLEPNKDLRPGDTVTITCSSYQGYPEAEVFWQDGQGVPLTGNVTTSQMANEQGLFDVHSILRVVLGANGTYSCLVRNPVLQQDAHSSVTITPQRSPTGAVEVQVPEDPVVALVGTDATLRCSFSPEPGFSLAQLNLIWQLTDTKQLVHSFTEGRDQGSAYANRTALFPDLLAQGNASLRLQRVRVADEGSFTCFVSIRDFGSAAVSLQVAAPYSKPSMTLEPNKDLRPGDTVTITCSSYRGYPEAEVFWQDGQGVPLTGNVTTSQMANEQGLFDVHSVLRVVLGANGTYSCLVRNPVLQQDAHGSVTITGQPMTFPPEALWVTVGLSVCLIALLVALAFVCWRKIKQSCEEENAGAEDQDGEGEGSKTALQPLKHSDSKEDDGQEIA

T3: recombinant mouse B7-H3 (plate bound) (mouse, UniProt Q8VE98 29-244, limits assumed)
T3 sequence (looked up): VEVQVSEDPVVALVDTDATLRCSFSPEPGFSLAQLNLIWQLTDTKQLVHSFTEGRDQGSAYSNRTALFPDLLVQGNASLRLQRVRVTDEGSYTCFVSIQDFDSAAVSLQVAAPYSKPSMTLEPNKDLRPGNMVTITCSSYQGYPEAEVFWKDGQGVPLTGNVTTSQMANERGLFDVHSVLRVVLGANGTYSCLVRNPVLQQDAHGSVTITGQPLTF

T4: mouse B7-H3 on the mouse cell line 3T3/NA1 (mouse, UniProt Q8VE98 29-316)
T4 construct: whole, on cells
T4 sequence (looked up): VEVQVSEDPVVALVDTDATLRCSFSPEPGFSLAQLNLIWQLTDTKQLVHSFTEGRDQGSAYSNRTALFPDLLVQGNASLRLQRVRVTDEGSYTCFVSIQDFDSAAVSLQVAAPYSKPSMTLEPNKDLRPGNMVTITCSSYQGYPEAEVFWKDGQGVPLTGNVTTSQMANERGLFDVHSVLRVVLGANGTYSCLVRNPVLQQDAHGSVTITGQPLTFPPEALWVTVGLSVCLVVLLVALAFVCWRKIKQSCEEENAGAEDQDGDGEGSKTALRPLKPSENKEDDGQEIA


Assays:
[1] = biological target: T1, human 4Ig-B7-H3 expressed on transduced …; experiment: flow cytometry, scFv-Fc on Jurkat cells transduced with B7-H3 isoforms (FIG. 2D)
[2] = biological target: T2, human B7H3 expressed on cell surface; experiment: flow cytometry, chimeric IgG1 and anti-human secondary on neuroblastoma lines and B7-H3 positive Jurkat lines (FIG. 6)
Description: FIG. 6—Chimeric antibodies derived from TE9 and BH6 show specificity for human B7H3 expressed on cell surface. TE9 and BH6 ScFv that had been cloned into full human IgG1 antibodies were used in staining experiments. A. Chimeric human IgG1 full antibodies derived from TE9 and BH6 ScFvs were used to stain 3 neuroblastoma cell lines, LAN-1, Kelly and IMR-32. […] B. Chimeric antibodies TE9 and BH6 were used to stain the 3 B7-H3 positive Jurkat cell lines, 4Ig-B7-H3, 2Ig-B7-H3 and T-B7-H3 (see FIG. 2)

[3] = biological target: T3, recombinant mouse B7-H3 (plate bound); experiment: binding ELISA with immobilised recombinant protein (FIG. 28C)
Procedure: (§1) TC6, TF9 and BH6 were produced as chimeric antibodies with a human IgG1 Fc domain. Antibodies were purified on protein A columns (Cytiva) and were tested in ELISA against plate bound antigen, with detection using goat anti-human IgG (H+L) (SeraCare). Cross reactivity against mouse B7-H3 was tested using flow cytometry against the mouse cell line 3T3/NA1.

[4] = biological target: T4, mouse B7-H3 on the mouse cell line …; experiment: flow cytometry on the mouse cell line 3T3/NA1 (FIG. 5A)
Procedure: as §1

| Binder | binding result [1] | further results |
| --- | --- | --- |
| TE9 scFv-Fc fusion protein (Fc fusion, not shown: a dimerising Fc or GST; small tags and cut ends) scFv: QVQLQQSGAALVKPGTSVKLSCKASGYTFTSYWMHWVKQRPGQGLEWIGMIHPKSGSVDYNEKFTNKATLTGDKSSGTAYMQLSSLTSEDSAVYYCARGGYGSPFDYWGQGTTVTVSSGGGGSGGGGSGGGGSENVLTQSPAIMSASPGEKVTMTCSASSSVSYMYWYQQKPGSSPRLLIYRTSNLASGVPARFSGSGSGTSYSLTISSMEAEDAATYYCQQWSSNPPTFGGGTKLEIK | binds |  |
| BF9 scFv-Fc fusion protein (Fc fusion, not shown: Fc of the scFv-Fc fusion, and any hinge or junction to it) scFv: QVKLQQSGAELVKPGASVKLSCKASGYTFTSYWVHWVKQRPGQGLEWIGMIHPKSGSADYNEKFTTKATLTADKSSSTAYMQLSSLTSEDSAVYYCARGGYGSPFDYWGQGTTVTVSSGGGGSGGGGSGGGGSENVLTQSPAIMSASPGEKVTMTCSASSSVSYMYWYQQKPGSSPRLLIYDTSNLASGAPVRFSGRGSGTSYSLTISSMEAEDAATYYCQQWSNNPLTFGAGTKLELK | binds |  |
| TE9 chimeric human IgG1 full antibody (antibody, V domains shown, Chimeric antibody, mouse variable domains cloned into full human IgG1; also called TE9 antibody; TE9 whole antibody) VH: QVQLQQSGAALVKPGTSVKLSCKASGYTFTSYWMHWVKQRPGQGLEWIGMIHPKSGSVDYNEKFTNKATLTGDKSSGTAYMQLSSLTSEDSAVYYCARGGYGSPFDYWGQGTTVTVSS VL: ENVLTQSPAIMSASPGEKVTMTCSASSSVSYMYWYQQKPGSSPRLLIYRTSNLASGVPARFSGSGSGTSYSLTISSMEAEDAATYYCQQWSSNPPTFGGGTKLEIK |  | binding result [2]: binds; binding result [3]: no binding |
| BH6 chimeric human IgG1 full antibody (antibody, V domains shown, Chimeric antibody with a human IgG1 Fc domain; also called BH6 antibody) VH: QVKLQQSGADLVKPGASVKLSCKASGYTFTSYWMHWVKQRPGQGLEWIGMIHPNSDGTNYNEKFKNRATLTVDKSSSTAYMQLNSLTSEDSAVYYCARWSYGMDSWGQGTTVTVSS VL: DIVLTQSPASLAVSLGQRATITCSASSSVSYMHWYQQKSGTSPKRWIYDTSKLASGVPARFSGSGSGTSYSLTISSMEAEDAATYYCQQWSRNPLTFGAGTKLEIK |  | binding result [4]: binds; binding result [2]: binds |
| TC6 scFv-Fc fusion protein (Fc fusion, not shown: a dimerising Fc or GST; small tags and cut ends) scFv: QVKLQESGAELVKPGASVKLSCKASGYTFTSYWIHWVKQRPGQGLEWIGMIHPKSGSINYNEKFRSKATLTVDKSSSTAYMQLSRLTSEDSAVYFCASGGYGSSLDYWGQGTTVTVSSGGGGSGGGGSGGGGSQIVLTQSPAIMSASPGEKVTMTCSASSSVSYMYWYQQKPRSSPISWIYLTSNLASGVPARFSGSGSGTSYSLTISSMEAEDAATYYCQQWSSDPLTFGAGTKLELK | binds |  |

Further lines, with some results ahead:

| binding result [1] | Binder | further results |
| --- | --- | --- |
| binds | BH6 scFv-Fc fusion protein (Fc fusion, not shown: a dimerising Fc or GST; small tags and cut ends) scFv: QVKLQQSGADLVKPGASVKLSCKASGYTFTSYWMHWVKQRPGQGLEWIGMIHPNSDGTNYNEKFKNRATLTVDKSSSTAYMQLNSLTSEDSAVYYCARWSYGMDSWGQGTTVTVSSGGGGSGGGGSGGGGSDIVLTQSPASLAVSLGQRATITCSASSSVSYMHWYQQKSGTSPKRWIYDTSKLASGVPARFSGSGSGTSYSLTISSMEAEDAATYYCQQWSRNPLTFGAGTKLEIK |  |
| binds | TF9 scFv-Fc fusion protein (Fc fusion, not shown: Fc of the scFv-Fc fusion, and any hinge or junction to it) scFv: QVKLQESGAELVKPGASVKLSCKASGYTFTSYWIHWVKQRPGQGLEWIGMIHPKSGSINYNEKFRSKATLTVDKSSSTAYMQLSRLTSEDSAVYFCASGGYGSSLDYWGQGTTVTVSSGGGGSGGGGSGGGGSENVLTQSPAIMSASPGEKVTISCSASSSVSYVYWYQQKPGSSPKPWIYRTSNLASGVPARFSGSGSGTSYSLTISSMEAEDAATYYCQQWSSNPLTFGAGTKLELK |  |
